Reference: patent US20150291952, “RNA APTAMER ISOLATION VIA DUAL-CYCLE (RAPID) SELECTION” (CORNELL UNIVERSITY, published 2015)

Tests used:
[1] = target: T1, CHK2 (UniProt O96017 O96017:1-543); assay: FP; same samples as F-EMSA, Hill fit; 5 mM MgCl2, yeast tRNA, room temp; conditions: tags: hexahistidine; expressed in E. coli BL21(DE3)-RIPL, Ni-NTA, ~90-95% pure; label: 3'-fluorescein (fluorescein 5-thiosemicarbazide)
Description: (§1) The RNA samples were 3′-end labelled with fluorescein 5-thiosemicarbazide (Invitrogen) as described previously (Pagano et al. 2007). 50 μL binding reactions were prepared with 2 nM fluorescently-labelled RNA and decreasing amounts of protein (2000 to 0 nM) in binding buffer containing 0.01% IGEPAL CA630, 10 μg/ml yeast tRNA, and 3 U of SUPERase•In RNase Inhibitor. Reactions were prepared in black 96-well half area microplates (Corning) and incubated at room temperature for 2 hours. The plates were scanned on a Synergy H1 microplate reader (BioTek) using the Ex: 485/20 Em: 528/20 filter set to determine the Fluorescence Polarization (FP). The polarization “P” is determined from the total parallel and perpendicular polarized fluorescence according to:
(§2) In order to confirm that the two methods had independently enriched the same aptamer, we tested the unambiguous top-ranked SELEX/RAPID candidate for CHK2 binding, hereafter referred to as C6M1. […] The calculated fraction bound curve for the gel shift is also shown in FIG. 6B as the solid line (left axis). […] In order to ensure that the observed binding was not a gel artefact, we also performed a Fluorescence Polarization (FP) assay. […]

[2] = target: T1, CHK2; assay: EMSA; F-EMSA, Hill fit; 25 mM Tris pH 8.0, 10 mM NaCl, 25 mM KCl, 5 mM MgCl2, 10 ug/ml yeast tRNA, room temp; binding to contaminant not ruled out; conditions: tags: hexahistidine; expressed in E. coli BL21(DE3)-RIPL, Ni-NTA, ~90-95% pure; label: 3'-fluorescein (fluorescein 5-thiosemicarbazide)
Description: as §1, §2

T1 sequence (O96017 whole entry, one chain of several): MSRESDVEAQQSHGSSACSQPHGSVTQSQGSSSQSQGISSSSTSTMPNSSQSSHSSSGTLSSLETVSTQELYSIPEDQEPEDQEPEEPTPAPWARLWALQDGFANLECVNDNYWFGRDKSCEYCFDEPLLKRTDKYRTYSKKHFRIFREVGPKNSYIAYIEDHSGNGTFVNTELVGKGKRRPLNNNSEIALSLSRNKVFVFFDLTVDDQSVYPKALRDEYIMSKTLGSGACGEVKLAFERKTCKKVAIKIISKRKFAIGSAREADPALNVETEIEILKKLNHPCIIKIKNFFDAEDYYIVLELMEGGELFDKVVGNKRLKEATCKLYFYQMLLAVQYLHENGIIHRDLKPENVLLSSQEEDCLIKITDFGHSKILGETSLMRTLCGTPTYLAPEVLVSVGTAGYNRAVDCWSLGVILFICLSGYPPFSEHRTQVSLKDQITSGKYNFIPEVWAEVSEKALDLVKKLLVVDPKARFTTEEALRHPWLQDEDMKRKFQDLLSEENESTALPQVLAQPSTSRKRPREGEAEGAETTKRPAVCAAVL

B1: C6M1 (ssRNA)
RNA: GGGAAUGGAUCCACAUCUACGAAUUCGAUCGGUUCCAACGCUCUGUCGCCUAAGUGAACAGAUGAAGAAAAAAUAGCCCAAUAAGAGGCAACAAUCUUUCACUGCAGACUUGACGAAGCUU
modifications: RNA transcript; SEQ:21 is the random region, assayed RNA also carries both library constant regions (reverse complement of the SEQ:22 flanks) [positions count without the 26-nt 5-prime fixed region]
In the case of B1, the Kd [1] is reported as 299 nM and the Kd [2] is reported as 180 nM.
